Reference: patent US20260242839A1, “GLYCOSIDE PRODUCT BIOSYNTHESIS AND RECOVERY” (Manus Bio Inc., priority 2023, published 2026)

B1: A143W: mutation to UGT enzyme of SEQ ID NO: 14 (protein)
chain: MATKNSSGMSLAERFWLTLSRSSLVVGRSCVEFEPETVPLLSTLRGKPITFLGLMPPLHEGRREDGEDATVRWLDAQPAKSVVYVALGSEVPLGVEKVHELALGLELAGTRFLWALRKPTGVSDADLLPAGFEERTRGRGVVWTRWVPQMSILAHAAVGAFLTHCGWNSTIEGLMFGHPLIMLPITGDQGPNARLIEAKNAGLQVARNDGDGSFDREGVAAAIRAVAVEEESSKVFQAKAKKLQEIVADMACHERYIDGFIQQLRSYKDDSGYSSSYAAAAGMHVVICPWLAFGHLLPCLDLAQRLASRGHRVSFVSTPRNISRLPPVRPALAPLVAFVALPLPRVEGLPDGAESTNDVPHDRPDMVELHRRAFDGLAAPFSEFLGTACADWVIVDSFHHWAAAAALEHKVPCAMMLLGSAEMIASIADERLEHAETESPAAAGQGRPAAAPTFEVARMKLIR
B2: R45F: mutation to UGT enzyme of SEQ ID NO: 14 (protein)
chain: MATKNSSGMSLAERFWLTLSRSSLVVGRSCVEFEPETVPLLSTLFGKPITFLGLMPPLHEGRREDGEDATVRWLDAQPAKSVVYVALGSEVPLGVEKVHELALGLELAGTRFLWALRKPTGVSDADLLPAGFEERTRGRGVVATRWVPQMSILAHAAVGAFLTHCGWNSTIEGLMFGHPLIMLPITGDQGPNARLIEAKNAGLQVARNDGDGSFDREGVAAAIRAVAVEEESSKVFQAKAKKLQEIVADMACHERYIDGFIQQLRSYKDDSGYSSSYAAAAGMHVVICPWLAFGHLLPCLDLAQRLASRGHRVSFVSTPRNISRLPPVRPALAPLVAFVALPLPRVEGLPDGAESTNDVPHDRPDMVELHRRAFDGLAAPFSEFLGTACADWVIVDSFHHWAAAAALEHKVPCAMMLLGSAEMIASIADERLEHAETESPAAAGQGRPAAAPTFEVARMKLIR
B3: C252R: mutation to UGT enzyme of SEQ ID NO: 14 (protein)
chain: MATKNSSGMSLAERFWLTLSRSSLVVGRSCVEFEPETVPLLSTLRGKPITFLGLMPPLHEGRREDGEDATVRWLDAQPAKSVVYVALGSEVPLGVEKVHELALGLELAGTRFLWALRKPTGVSDADLLPAGFEERTRGRGVVATRWVPQMSILAHAAVGAFLTHCGWNSTIEGLMFGHPLIMLPITGDQGPNARLIEAKNAGLQVARNDGDGSFDREGVAAAIRAVAVEEESSKVFQAKAKKLQEIVADMARHERYIDGFIQQLRSYKDDSGYSSSYAAAAGMHVVICPWLAFGHLLPCLDLAQRLASRGHRVSFVSTPRNISRLPPVRPALAPLVAFVALPLPRVEGLPDGAESTNDVPHDRPDMVELHRRAFDGLAAPFSEFLGTACADWVIVDSFHHWAAAAALEHKVPCAMMLLGSAEMIASIADERLEHAETESPAAAGQGRPAAAPTFEVARMKLIR
B4: Q244K: mutation to UGT enzyme of SEQ ID NO: 14 (protein)
chain: MATKNSSGMSLAERFWLTLSRSSLVVGRSCVEFEPETVPLLSTLRGKPITFLGLMPPLHEGRREDGEDATVRWLDAQPAKSVVYVALGSEVPLGVEKVHELALGLELAGTRFLWALRKPTGVSDADLLPAGFEERTRGRGVVATRWVPQMSILAHAAVGAFLTHCGWNSTIEGLMFGHPLIMLPITGDQGPNARLIEAKNAGLQVARNDGDGSFDREGVAAAIRAVAVEEESSKVFQAKAKKLKEIVADMACHERYIDGFIQQLRSYKDDSGYSSSYAAAAGMHVVICPWLAFGHLLPCLDLAQRLASRGHRVSFVSTPRNISRLPPVRPALAPLVAFVALPLPRVEGLPDGAESTNDVPHDRPDMVELHRRAFDGLAAPFSEFLGTACADWVIVDSFHHWAAAAALEHKVPCAMMLLGSAEMIASIADERLEHAETESPAAAGQGRPAAAPTFEVARMKLIR
B5: T37S: mutation to UGT enzyme of SEQ ID NO: 14 (protein)
chain: MATKNSSGMSLAERFWLTLSRSSLVVGRSCVEFEPESVPLLSTLRGKPITFLGLMPPLHEGRREDGEDATVRWLDAQPAKSVVYVALGSEVPLGVEKVHELALGLELAGTRFLWALRKPTGVSDADLLPAGFEERTRGRGVVATRWVPQMSILAHAAVGAFLTHCGWNSTIEGLMFGHPLIMLPITGDQGPNARLIEAKNAGLQVARNDGDGSFDREGVAAAIRAVAVEEESSKVFQAKAKKLQEIVADMACHERYIDGFIQQLRSYKDDSGYSSSYAAAAGMHVVICPWLAFGHLLPCLDLAQRLASRGHRVSFVSTPRNISRLPPVRPALAPLVAFVALPLPRVEGLPDGAESTNDVPHDRPDMVELHRRAFDGLAAPFSEFLGTACADWVIVDSFHHWAAAAALEHKVPCAMMLLGSAEMIASIADERLEHAETESPAAAGQGRPAAAPTFEVARMKLIR
B6: V38F: mutation to UGT enzyme of SEQ ID NO: 14 (protein)
chain: MATKNSSGMSLAERFWLTLSRSSLVVGRSCVEFEPETFPLLSTLRGKPITFLGLMPPLHEGRREDGEDATVRWLDAQPAKSVVYVALGSEVPLGVEKVHELALGLELAGTRFLWALRKPTGVSDADLLPAGFEERTRGRGVVATRWVPQMSILAHAAVGAFLTHCGWNSTIEGLMFGHPLIMLPITGDQGPNARLIEAKNAGLQVARNDGDGSFDREGVAAAIRAVAVEEESSKVFQAKAKKLQEIVADMACHERYIDGFIQQLRSYKDDSGYSSSYAAAAGMHVVICPWLAFGHLLPCLDLAQRLASRGHRVSFVSTPRNISRLPPVRPALAPLVAFVALPLPRVEGLPDGAESTNDVPHDRPDMVELHRRAFDGLAAPFSEFLGTACADWVIVDSFHHWAAAAALEHKVPCAMMLLGSAEMIASIADERLEHAETESPAAAGQGRPAAAPTFEVARMKLIR
B7: T453F: mutation to UGT enzyme of SEQ ID NO: 14 (protein)
chain: MATKNSSGMSLAERFWLTLSRSSLVVGRSCVEFEPETVPLLSTLRGKPITFLGLMPPLHEGRREDGEDATVRWLDAQPAKSVVYVALGSEVPLGVEKVHELALGLELAGTRFLWALRKPTGVSDADLLPAGFEERTRGRGVVATRWVPQMSILAHAAVGAFLTHCGWNSTIEGLMFGHPLIMLPITGDQGPNARLIEAKNAGLQVARNDGDGSFDREGVAAAIRAVAVEEESSKVFQAKAKKLQEIVADMACHERYIDGFIQQLRSYKDDSGYSSSYAAAAGMHVVICPWLAFGHLLPCLDLAQRLASRGHRVSFVSTPRNISRLPPVRPALAPLVAFVALPLPRVEGLPDGAESTNDVPHDRPDMVELHRRAFDGLAAPFSEFLGTACADWVIVDSFHHWAAAAALEHKVPCAMMLLGSAEMIASIADERLEHAETESPAAAGQGRPAAAPFFEVARMKLIR
B8: M250K_A251E_C252L: mutation to UGT enzyme of SEQ ID NO: 14 (protein)
chain: MATKNSSGMSLAERFWLTLSRSSLVVGRSCVEFEPETVPLLSTLRGKPITFLGLMPPLHEGRREDGEDATVRWLDAQPAKSVVYVALGSEVPLGVEKVHELALGLELAGTRFLWALRKPTGVSDADLLPAGFEERTRGRGVVATRWVPQMSILAHAAVGAFLTHCGWNSTIEGLMFGHPLIMLPITGDQGPNARLIEAKNAGLQVARNDGDGSFDREGVAAAIRAVAVEEESSKVFQAKAKKLQEIVADKELHERYIDGFIQQLRSYKDDSGYSSSYAAAAGMHVVICPWLAFGHLLPCLDLAQRLASRGHRVSFVSTPRNISRLPPVRPALAPLVAFVALPLPRVEGLPDGAESTNDVPHDRPDMVELHRRAFDGLAAPFSEFLGTACADWVIVDSFHHWAAAAALEHKVPCAMMLLGSAEMIASIADERLEHAETESPAAAGQGRPAAAPTFEVARMKLIR
B9: I427F: mutation to UGT enzyme of SEQ ID NO: 14 (protein)
chain: MATKNSSGMSLAERFWLTLSRSSLVVGRSCVEFEPETVPLLSTLRGKPITFLGLMPPLHEGRREDGEDATVRWLDAQPAKSVVYVALGSEVPLGVEKVHELALGLELAGTRFLWALRKPTGVSDADLLPAGFEERTRGRGVVATRWVPQMSILAHAAVGAFLTHCGWNSTIEGLMFGHPLIMLPITGDQGPNARLIEAKNAGLQVARNDGDGSFDREGVAAAIRAVAVEEESSKVFQAKAKKLQEIVADMACHERYIDGFIQQLRSYKDDSGYSSSYAAAAGMHVVICPWLAFGHLLPCLDLAQRLASRGHRVSFVSTPRNISRLPPVRPALAPLVAFVALPLPRVEGLPDGAESTNDVPHDRPDMVELHRRAFDGLAAPFSEFLGTACADWVIVDSFHHWAAAAALEHKVPCAMMLLGSAEMIASFADERLEHAETESPAAAGQGRPAAAPTFEVARMKLIR
B10: T186I: mutation to UGT enzyme of SEQ ID NO: 14 (protein)
chain: MATKNSSGMSLAERFWLTLSRSSLVVGRSCVEFEPETVPLLSTLRGKPITFLGLMPPLHEGRREDGEDATVRWLDAQPAKSVVYVALGSEVPLGVEKVHELALGLELAGTRFLWALRKPTGVSDADLLPAGFEERTRGRGVVATRWVPQMSILAHAAVGAFLTHCGWNSTIEGLMFGHPLIMLPIIGDQGPNARLIEAKNAGLQVARNDGDGSFDREGVAAAIRAVAVEEESSKVFQAKAKKLQEIVADMACHERYIDGFIQQLRSYKDDSGYSSSYAAAAGMHVVICPWLAFGHLLPCLDLAQRLASRGHRVSFVSTPRNISRLPPVRPALAPLVAFVALPLPRVEGLPDGAESTNDVPHDRPDMVELHRRAFDGLAAPFSEFLGTACADWVIVDSFHHWAAAAALEHKVPCAMMLLGSAEMIASIADERLEHAETESPAAAGQGRPAAAPTFEVARMKLIR

Tested on: steviol glycoside
Test: steviol glycoside bioconversion by E. coli expressing individual mutations of UGT SEQ ID NO: 14
Format: cell-based
Conditions: fold improvement of % conversion vs parent UGT SEQ ID NO: 14; stevia leaf extract and glucose fed; 37° C., 48 hr
Experimental: Fold improvement is with respect to % steviol glycoside conversion of the parent UGT enzyme of SEQ ID NO: 14. The UGT enzyme of SEQ ID NO: 15 has the following mutations from SEQ ID NO: 14: ins_A2_T3_RR, H59P, A238E, L417F. Stevia leaf extract and glucose were fed to the bioconversion strains. Bioconversion took place at 37° C. for 48 hr. Data were quantified by reverse phase LC DAD to quantify conversion of steviol glycosides.
Fold improvement (FI) is with respect to % steviol glycoside conversion.

Row | Molecule | FI %Stevioside→rebE | FI %rebA→rebD
1 | B1 | 1.3 | 1.3
2 | B2 | 1.35 | 1.18
3 | B3 | 1.25 | 1.19
4 | B4 | 1.25 | 1.16
5 | B5 | 1.35 | 1.17
6 | B6 | 1.33 | 1.19
7 | B7 | 1.32 | 1.20
8 | B8 | 1.40 | 1.23
9 | B9 | 1.15 | 1.24
10 | B10 | 1.48 | 1.24
